This note sets out measurements from paper PMC4810246.

The target of experiment [1] is porcine aminopeptidase N (pAPN) ectodomain with a C-terminal His6 tag (UniProt P15145). Nature of the experiment: ELISA. The note with it: read off a plot. On the technique in general: ELISA stands for enzyme-linked immunosorbent assay.
For experiment [2], the target named is the three mutant proteins. The experiment is described as follows: ELISA; plates coated overnight at 4 °C with IgG4 Fc-tagged S1 fragments or mutants (60 μg/mL or 120 to 1.875 μg/mL), blocked with BSA, incubated with His6-tagged pAPN (50 μg/mL) 2 h at RT; anti-His detection.
Where [3] appears, read: S protein 1.875 μg/mL, parent: est. 0.25.
The mark [4] stands for this setting: S protein 3.75 μg/mL, parent: est. 0.42.
[5] abbreviates: S protein 7.5 μg/mL, parent: est. 0.70.
The mark [6] stands for this setting: S protein 15 μg/mL, parent: est. 1.2.
Where [7] appears, read: S protein 30 μg/mL, parent: est. 1.7.
The mark [8] stands for this setting: S protein 60 μg/mL, parent: est. 2.0.
The mark [9] stands for this setting: S proteins coated at 60 μg/mL, pAPN in solution, parent: est. 1.9.

As to “PEDV CHGD-01 S1 C-terminus fragment S477-629 with a C-terminal IgG4 Fc tag residues 521-534 replaced by HCoV-NL63 residues 493-506 (RBM1-1)”, the response is 0.13 Abs (630 nm) in experiment [1] (setting [3]); 0.25 Abs (630 nm) in experiment [1] (setting [4]); 0.6 Abs (630 nm) in experiment [1] (setting [5]); 0.98 Abs (630 nm) in experiment [1] (setting [6]); 1 Abs (630 nm) in experiment [1] (setting [7]); 1.1 Abs (630 nm) in experiment [1] (setting [8]). Also, the response in experiment [1] (setting [9]) was 1.2 Abs (630 nm).

On to “PEDV CHGD-01 S1 C-terminus fragment S477-629 with a C-terminal IgG4 Fc tag residues 556-563 replaced by HCoV-NL63 residues 534-541 (RBM2-1)”, for which the response in experiment [1] (setting [3]) was 0.15 Abs (630 nm); in experiment [1] (setting [4]), 0.32 Abs (630 nm); in experiment [1] (setting [5]), 0.7 Abs (630 nm); in experiment [1] (setting [6]), 0.88 Abs (630 nm); in experiment [1] (setting [7]), 0.93 Abs (630 nm); in experiment [1] (setting [8]), 1.1 Abs (630 nm). Besides, the response in experiment [1] (setting [9]) was 1.2 Abs (630 nm).

Take “PEDV CHGD-01 S1 C-terminus fragment S477-629 with a C-terminal IgG4 Fc tag residues 607-615 replaced by SGSGS (RBM3-2)”: the response in experiment [1] (setting [3]) was 0.05 Abs (630 nm); in experiment [1] (setting [4]), 0.06 Abs (630 nm); in experiment [1] (setting [5]), 0.13 Abs (630 nm); in experiment [1] (setting [6]), 0.34 Abs (630 nm); in experiment [1] (setting [7]), 0.8 Abs (630 nm); in experiment [1] (setting [8]) it was 1.2 Abs (630 nm). Also, the response in experiment [1] (setting [9]) was 1.4 Abs (630 nm).

B1: porcine aminopeptidase N (pAPN) ectodomain with a C-terminal His6 tag (receptor)
chain: QSKPWNRYRLPTTLLPDSYNVTLRPYLTPNADGLYIFKGKSIVRLLCQEPTDVIIIHSKKLNYTTQGHMVVLRGVGDSQVPEIDRTELVELTEYLVVHLKGSLQPGHMYEMESEFQGELADDLAGFYRSEYMEGNVKKVLATTQMQSTDARKSFPCFDEPAMKATFNITLIHPNNLTALSNMPPKGSSTPLAEDPNWSVTEFETTPVMSTYLLAYIVSEFQSVNETAQNGVLIRIWARPNAIAEGHGMYALNVTGPILNFFANHYNTSYPLPKSDQIALPDFNAGAMENWGLVTYRENALLFDPQSSSISNKERVVTVIAHELAHQWFGNLVTLAWWNDLWLNEGFASYVEYLGADHAEPTWNLKDLIVPGDVYRVMAVDALASSHPLTTPAEEVNTPAQISEMFDSISYSKGASVIRMLSNFLTEDLFKEGLASYLHAFAYQNTTYLDLWEHLQKAVDAQTSIRLPDTVRAIMDRWTLQMGFPVITVDTKTGNISQKHFLLDSESNVTRSSAFDYLWIVPISSIKNGVMQDHYWLRDVSQAQNDLFKTASDDWVLLNVNVTGYFQVNYDEDNWRMIQHQLQTNLSVIPVINRAQVIYDSFNLATAHMVPVTLALDNTLFLNGEKEYMPWQAALSSLSYFSLMFDRSEVYGPMKKYLRKQVEPLFQHFETLTKNWTERPENLMDQYSEINAISTACSNGLPQCENLAKTLFDQWMSDPENNPIHPNLRSTIYCNAIAQGGQDQWDFAWGQLQQAQLVNEADKLRSALACSNEVWLLNRYLGYTLNPDLIRKQDATSTINSIASNVIGQPLAWDFVQSNWKKLFQDYGGGSFSFSNLIQGVTRRFSSEFELQQLEQFKKNNMDVGFGSGTRALEQALEKTKANIKWVKENKEVVLNWFIEHS
For B1, in experiment [2], the percent reduction of receptor-binding activity against wild-type S477–629 is 30 to 40%.
